In publication PMC11667672:

What was measured:
[1] = biological target: T1, His41 (UniProt position 3304, VYCPRHVICTS); test: chemical modification; details: preincubation with DEPC on ice for 10-60 s; residual activity assay temperature per Table 1 footnote 25 °C; 150 mM NaCl in constant-ionic-strength mixed buffers; free enzyme (apo), 2 µM
[2] = biological target: T2, Cys145 (UniProt position 3408, FLNGSCGSVGF); test: chemical modification; details: preincubation with IAM on ice; residual activity assayed at 25 °C (Table 1 footnote says 25 °C); 150 mM NaCl in constant-ionic-strength mixed buffers; free enzyme (apo), 2 µM
[3] = biological target: T1, His41; test: kinetics; details: 150 mM NaCl in constant-ionic-strength mixed buffers
[4] = biological target: T2, Cys145; test: kinetics; details: 150 mM NaCl in constant-ionic-strength mixed buffers
[5] = biological target: Cys145 (UniProt position 3385, FLNGSCGSVGF); test: chemical modification; details: cited from earlier work
[6] = 25 °C (Table 1 footnote), apo (free) enzyme
[7] = 25 °C, free enzyme (kcat/Ka reports on free enzyme and free substrate)
[8] = 25 °C, free enzyme binding the inhibitor

In the case of “3-chymotrypsin-like protease (3CL-PR; Main protease, Mpro, nsp5) (Severe acute respiratory syndrome coronavirus 2 (SARS-CoV-2))”, the pKa [1] is reported as 6.05 ± 0.07, the pKa [2] is reported as 7.8 ± 0.1 and the pKa [3, 6] is reported as 6.2 ± 0.3. It also gave a pKa [3, 7] of 5.9 ± 0.1, a pKa [3, 8] of 6.5 ± 0.2 and a pKa ([3]; 25 °C, free enzyme in D2O) of 6.10 ± 0.07. For the same substance, the pKa [4, 6] was 8.2 ± 0.4, the pKa [4, 7] was 8.39 ± 0.07 and the pKa [4, 8] was 8.5 ± 0.1. For the same substance, the pKa ([4]; 25 °C, free enzyme in D2O) was 9.06 ± 0.06.

In the case of “3-chymotrypsin-like protease (3CLpro, Main protease, nsp5) (Severe acute respiratory syndrome coronavirus (SARS-CoV))”, the pKa [5] is given as 7.8 ± 0.1.
